This note sets out measurements from article PMC8752864 (Nature Communications, 2022).

Numbering of substitutions follows the chain as printed.

To fix the notation:
B1: Nb8197 (VHH)
VHH: QVQLQESGGGLVQPGGSLRLSCAASGFTFSSYAMSWVRQAPGKGLEWVSSITSAFGRTSYVSSVKGRFTISRDNAKNTLYLQMNSLKPEDTAVYYCAQGASWPYRYRGQGTQVTVSS
B2: Nb8194 (VHH)
VHH: QVQLQESGGGLVQPGGSLRLSCAASGFTFSNYYMSWVRQAPGEGREWVSSINRDGSNTYYADSVKGRFTIARDNVKNTLYLLMDSLKSDDTAVYYCTKGSNWPYDNWGQGTQVTVSS
notes: source: E. coli WK6, periplasm, purified (Ni-NTA)
B3: Nb8193 (VHH)
VHH: QVQLQESGGGLVQPGGSLRLSCAASGFTFKMYAMSWVRQAPGKGLEWVSSINSAGGSTSYVDSVKGRFTISRDNAKNTLYLQMNSLKPDDTAVYYCVQGRNWPYDYRGQGTQVTVSS
notes: as for B2
B4: Nb8208 (VHH)
VHH: QVQLQESGGGLVQPGGSLRLSCAASGRTFSMYAMAWFRQAPGKQREFVGTISRSGDYALHADAVKGRFTISRDNAKNTVYLQMNSLKLEDTAVYYCAAGAYHSKDKTLYDYWGQGTQVTVSS
notes: as for B2
B5: Nb8191 (VHH)
VHH: QVQLQESGGGLVQPGGSLRLSCTASESVASINIVGWYRQISGKERELVARISSGGTITDYSDSVKGRFTITRDNTKNTVYLQMNSLKRGDTAVYYCNAEYQYGSDWFHIWGQGTQVTVSS
notes: as for B2
B6: Nb8209 (VHH)
VHH: QVQLQESGGGLVQPGGSLRLSCAASGNIRSINTMSWYRQAPGKERELVASDSTGGSTGGSTVYAASVKGRFTISRDNAKNTVYLQMNMLKPEDTAVYYCYVYGMSRFGSTISTLFGQGTQVTVSS
notes: as for B2
B7: Nb8204 (VHH)
VHH: QVQLQESGGGLVQPRGSLRLSCAASGSIAIIYTMGWYRQAPLKERELVATVTYGGNTNYADPVKGRFTISRDNNKNTEYLQMSSLQPEDTAVYYCYMRVRSTAWDTDDYWGQGTQVTVSS
notes: as for B2
B8: Nb8203 (VHH)
VHH: QVQLQESGGGLVQAGGSLRLSCAAPGRILTLSRYVMGWFRQAPGKEREFVAAISPGTTDTDYADSVKGRFTISRDNAKNTVYLEMSSLKPEDTAVYVCAAGAASSGTVYRVYGLYNYRGQGTQVTVSS
B9: Nb8192 (VHH)
VHH: QVQLQESGGGLVQAGASLRLSCAASGRTFMGWFRQAPGQEREFVAAIDAFGINTYYADSAKGRFTISRDSAKNTVYLQMNSLKPEDTAVYYCAATLRGTQPGAVMQWRPDYWGQGTQVTVSS
notes: as for B2
B10: Nb8190 (VHH)
VHH: QVQLQESGGGLVQAGGSLRLSCAASGRSLSDYTMGWFRQAPGKEREFVTAITSDGVYANYADSVKGRFTISRDNAKNTAYLQMNSLKPEDTAVYYCAGKTRRSMLMTTGYDYWGQGTQVTVSS
notes: as for B2
B11: Nb8198 (VHH)
VHH: QVQLQESGGGLVQTGDSLRLSCAGAERSFNSYTMGWFRQAPGKEREFVAAIAFSGGFTYYAEAVKGRFTISRDSGKNTVYLQMNSLKPEDTAVYYCAARFYGGGYYYQQREYSFWGQGTQVTVSS
notes: as for B2
B12: Nb8207 (VHH)
VHH: QVQLQESGGGLVQAGASLRLSCTASGRTSSTYPMGWFRQGPGKEREFVAAISWAGSSTYYGDFVKGRFTISRDNAKNTVYLQMNSLKPEDTAVYYCARAARPYAYGLDYSTEASYDYWGQGTQVTVSS
notes: as for B2
B13: Nb8196 (VHH)
VHH: QVQLQESGGGLVQAGDSLRLSCTTSGSSLSRYGVGWFRQAPGEEREFGASISWNGATYYADSVKGRFTISRDNAKNTVYLQMNSLKAEDTAVYYCAARSDGYLTPYLSPVYWGQGTQVTVSS
notes: as for B2
B14: Nb8201 (VHH)
VHH: QVQLQESGGGLVQPGGSLRLSCAASGSDFSLYAMGWYRQVPGKERELVATITIGGTTNFADSARGRFTISRGNAKNTVYLQMNNLKPEDTAVYYCWSRGSYGRYLETWGQGTQVTVSS
notes: as for B2
B15: Nb8189 (VHH)
VHH: B14 VHH with I53S
notes: as for B2
B16: Nb8205 (VHH)
chain: QVQLQESGGGMVQPGGSLRLSCLASGFTFSNYAMTWVRQAPGKGPEWVSMVSNNGADTTYTDSVKGRFTISRDNAKNTLYLRMNNVKPEDSAVYYCAKRRYGGIWTGQPTDYDYLGQGTVTVSS
B17: Nb8199 (VHH)
VHH: QVQLQESGGGLVQAGGSLRLSCAASGRTFSSYAMGWFRQAPGKEREFVGAIDLSGLYKHYGDSVKGRFTISRDNAKNTVYLQMSSLKPEDTAVYYCAAAGIYYAGSYSPLLYDYWGQGTQVTVSS
notes: as for B2
B18: Nb8202 (VHH)
VHH: QVQLQESGGGLVQAGESLRLSCAASGGTFIYYGMGWFRQAPGKEREFVASISQTGGDIYAMDFVKGRFTISRDNSKNTLYLQMNSLKPEDTAVYYCAAATSPYASRKLYEYKYWGQGTQVTVSS
notes: as for B2
B19: Nb8210 (VHH)
VHH: B18 VHH with F29L, T54A, M83L, S85T, E110D
notes: as for B2
B20: Nb8200 (VHH)
VHH: QVQLQESGGGLVQAGDSLRLSCAASGRTFSGYIMAWFRQTPGKERELVARLGPSSSIQYYRDSVKGRFTLSRDNAKNTLYLQMNSLKPEDTAVYYCAFTLKWSSDYRSHNAYDYWGQGTQVTVSS
notes: as for B2
B21: Nb8206 (VHH)
VHH: QVQLQESGGGLVQPGGSLRLSCTASGGIFGISAMGWYRQAPGKERELVARITRSGSTNFADSVKDRFTISRDATENTVVLQMNSLKAEDTAVYYCNGQFWEVDNGNIDLWGQGTQVTVSS
notes: as for B2
B22: polymerase basic 2 (PB2) subunit of influenza A/Brevig Mission/1/1918 (H1N1) virus (natural protein)
chain: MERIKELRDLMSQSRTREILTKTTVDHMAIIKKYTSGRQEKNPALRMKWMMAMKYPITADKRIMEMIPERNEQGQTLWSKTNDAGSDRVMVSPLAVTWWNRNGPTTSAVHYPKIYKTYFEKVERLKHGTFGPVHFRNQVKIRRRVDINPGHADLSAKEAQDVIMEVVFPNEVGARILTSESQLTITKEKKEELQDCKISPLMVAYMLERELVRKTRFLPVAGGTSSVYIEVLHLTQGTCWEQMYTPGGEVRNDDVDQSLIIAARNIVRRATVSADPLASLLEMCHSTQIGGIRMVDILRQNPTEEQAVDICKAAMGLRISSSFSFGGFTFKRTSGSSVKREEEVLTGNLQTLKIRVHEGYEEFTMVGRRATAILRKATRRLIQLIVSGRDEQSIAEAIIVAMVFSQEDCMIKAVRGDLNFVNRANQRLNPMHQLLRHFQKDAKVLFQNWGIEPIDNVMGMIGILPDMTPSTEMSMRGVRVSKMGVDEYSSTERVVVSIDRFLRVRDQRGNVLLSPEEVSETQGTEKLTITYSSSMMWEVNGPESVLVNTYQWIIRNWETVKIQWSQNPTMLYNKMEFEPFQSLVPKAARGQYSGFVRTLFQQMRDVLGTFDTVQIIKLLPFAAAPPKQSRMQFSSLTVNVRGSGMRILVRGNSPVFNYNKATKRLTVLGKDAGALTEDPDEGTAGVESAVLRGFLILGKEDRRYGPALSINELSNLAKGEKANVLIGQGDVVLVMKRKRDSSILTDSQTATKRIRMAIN
notes: the PB2 chain of m1
B23: RNA polymerase of influenza A/Brevig Mission/1/1918 (H1N1) virus, heterotrimer of PA, PB1 and PB2 (complex)
chain 1: […]
chain 2: MDVNPTLLFLKVPAQNAISTTFPYTGDPPYSHGTGTGYTMDTVNRTHQYSEKGRWTTNTETGAPQLNPIDGPLPEDNEPSGYAQTDCVLEAMAFLEESHPGIFENSCLETMEVVQQTRVDKLTQGRQTYDWTLNRNQPAATALANTIEVFRSNGLTANESGRLIDFLKDVMESMDKEEMEITTHFQRKRRVRDNMTKKMVTQRTIGKKKQRLNKRSYLIRALTLNTMTKDAERGKLKRRAIATPGMQIRGFVYFVETLARSICEKLEQSGLPVGGNEKKAKLANVVRKMMTNSQDTELSFTITGDNTKWNENQNPRMFLAMITYITRNQPEWFRNVLSIAPIMFSNKMARLGKGYMFESKSMKLRTQIPAEMLASIDLKYFNDSTRKKIEKIRPLLIDGTASLSPGMMMGMFNMLSTVLGVSILNLGQKRYTKTTYWWDGLQSSDDFALIVNAPNHEGIQAGVDRFYRTCKLLGINMSKKKSYINRTGTFEFTSFFYRYGFVANFSMELPSFGVSGINESADMSIGVTVIKNNMINNDLGPATAQMALQLFIKDYRYTYRCHRGDTQIQTRRSFEIKKLWEQTRSKAGLLVSDGGPNLYNIRNLHIPEVCLKWELMDEDYQGRLCNPLNPFVSHKEIESVNNAVMMPAHGPAKNMEYDAVATTHSWIPKRNRSILNTSQRGILEDEQMYQKCCNLFEKFFPSSSYRRPVGISSMVEAMVSRARIDARIDFESGRIKKEEFAEIMKICSTIEELRRQK
chain 3: B22 chain
notes: also called 1918 polymerase; 1918 pandemic influenza virus polymerase; copies: + +

The first data set concerns the target T1, PB2 cap-mid-link construct (cap-binding and mid-link domains) from influenza A/duck/Fujian/01/2002 (H5N1) (Influenza A virus …).
Assay: not given
Details: not given
In the case of B1, the binding result is on record as “binds”.

Another data set has as its target T1, PB2 cap-mid-link construct (cap-binding …). In words: SEC. The following applies: both partners purified.
Take B2: the binding result was “binds”. As for B3, the binding result is “binds”. As to B4, the binding result is recorded as “binds”.

For a further data set, the target named is T2, RNA polymerase of influenza A/Brevig Mission/1/1918 (H1N1) virus, heterotrimer of PA, PB1 and PB2 (influenza A/Brevig Mission/1/1918 …, UniProt Q3HM39;Q3HM40;Q3HM41).
T2 construct: also called 1918 polymerase; 1918 pandemic influenza virus polymerase; copies: + +
Briefly: cryo-EM structure. The following applies: both partners purified.
Regarding B5, the binding result is “binds”.

Regarding B6, the binding result is “binds”. Regarding B7, the binding result is “binds”. Regarding B8, the binding result is “binds”.

As to B9, the binding result was “binds”.

Turning to B10, the binding result was “binds”. Same read-out and setting: to B11 belongs “binds”; to B12, “binds”; to B13, “binds”. For B14, the binding result was “binds”.

Turning to B15, the binding result is recorded as “binds”.

Regarding B16, the binding result is on record as “binds”. For the molecule B17, the binding result is “binds”. For the molecule B18, the binding result was “binds”. The same measure, in the same setting: to B19 belongs “binds”. B20: the binding result was “binds”. Turning to B21, the binding result is given as “binds”.

Another data set has as its target T3, polymerase acidic (PA) subunit of influenza A/Brevig Mission/1/1918 (H1N1) virus (influenza A/Brevig Mission/1/1918 …, UniProt Q3HM39).
T3 construct: the PA chain of m1
Briefly: cryo-EM structure. As to conditions: both partners purified.
As for B22, the binding result is “binds”.

A further data set deals with the molecule itself. In words: cryo-EM structure.
Details: not given
As to B23, the binding result is “binds”.
